The text below walks through data of publication PMC9256704.

This assay deals with PKM2 (M2 isoform of pyruvate kinase), endogenous (human (endogenous in A549 and in patients' lung cancer tissues)) (UniProt P14618). Kind of assay: native gel or EMSA; native PAGE of cytoplasm and nucleus of cells; TRIB2 overexpression or siRNA-TRIB2. On the technique in general: In EMSA bound probe runs differently from free probe, usually more slowly.

Chain of PKM2 (M2 isoform of pyruvate kinase), endogenous, P14618 1-531 (natural protein; other documents disagree on this pair) (P14618 whole entry, canonical isoform): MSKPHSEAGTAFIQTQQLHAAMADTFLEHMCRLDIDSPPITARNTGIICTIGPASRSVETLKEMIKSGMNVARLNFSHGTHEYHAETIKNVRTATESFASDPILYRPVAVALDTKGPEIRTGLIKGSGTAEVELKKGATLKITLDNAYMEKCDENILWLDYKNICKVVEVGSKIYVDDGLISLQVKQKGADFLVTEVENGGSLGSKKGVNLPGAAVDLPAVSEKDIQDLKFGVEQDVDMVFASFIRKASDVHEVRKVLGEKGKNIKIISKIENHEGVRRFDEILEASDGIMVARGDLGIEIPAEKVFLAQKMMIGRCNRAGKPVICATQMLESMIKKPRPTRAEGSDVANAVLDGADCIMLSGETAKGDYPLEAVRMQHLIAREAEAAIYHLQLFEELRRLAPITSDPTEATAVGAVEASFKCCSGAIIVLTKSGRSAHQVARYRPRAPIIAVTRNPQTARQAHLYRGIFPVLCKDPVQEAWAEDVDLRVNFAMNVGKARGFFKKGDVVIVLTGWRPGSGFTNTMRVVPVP

As usually defined, the stoichiometry N is the number of molecules, sites or subunits per partner or assembly. Turning to “PKM2 (M2 isoform of pyruvate kinase), endogenous, P14618 1-531 (natural protein; other documents disagree on this pair)”, the stoichiometry N turned out to be 2.
